Literature values as cited in paper PMC11172262.

Molecular target: Claudin-1 (Homo sapiens) (UniProt O95832)

With Claudin-1 ECL1 (from UniProt O95832) as the substance, how does the Kd read?
Its Kd is 47 nM.
